In US20250164487, “METHOD FOR […] ANALYTE USING POLYNUCLEOTIDE” (NATIONAL UNIVERSITY CORPORATION TOKYO UNIVERSITY OF …, published 2025) one finds binding result and Kd data, which are given here for two molecules.

Data set [1] addresses T1, SARS-CoV-2 spike protein receptor-binding domain (RBD) (SARS-CoV-2, UniProt P0DTC2 P0DTC2:319-541).
Another data set deals with BSA (UniProt P02769 P02769:25-607).
The target of data set [2] is T1, SARS-CoV-2 spike protein …. Briefly: […]; PBS pH 7.4, room temperature.

Sequence of BSA (P02769 25-607, one chain of several): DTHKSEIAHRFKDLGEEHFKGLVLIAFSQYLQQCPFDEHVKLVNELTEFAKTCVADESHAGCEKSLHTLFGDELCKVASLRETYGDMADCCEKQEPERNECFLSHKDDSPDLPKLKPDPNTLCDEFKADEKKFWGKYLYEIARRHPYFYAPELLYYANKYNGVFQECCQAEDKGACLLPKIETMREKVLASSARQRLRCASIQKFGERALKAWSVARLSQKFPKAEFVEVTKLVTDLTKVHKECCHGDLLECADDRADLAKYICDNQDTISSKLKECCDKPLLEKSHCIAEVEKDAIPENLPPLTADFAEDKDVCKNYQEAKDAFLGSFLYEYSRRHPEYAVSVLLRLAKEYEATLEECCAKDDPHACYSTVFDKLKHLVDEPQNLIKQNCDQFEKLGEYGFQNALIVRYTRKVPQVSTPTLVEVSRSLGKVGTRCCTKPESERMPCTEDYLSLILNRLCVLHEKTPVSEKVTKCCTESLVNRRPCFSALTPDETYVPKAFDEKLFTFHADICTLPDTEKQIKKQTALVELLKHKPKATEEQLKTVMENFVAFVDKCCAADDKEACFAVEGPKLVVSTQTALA

Consider AGGGGCTGCTCGGGATTGCGGATATGGA (ssDNA) [RBD-45], for which the binding result in data set [1] is reported as “binds”. In the case of GGGGCTGCTCGGGATTGCGGATATGG (ssDNA) [RBD-46], the binding result in the data set with BSA is “no binding”. This molecule yielded a Kd in data set [2] of 34.7 nM.

The term Kd denotes the free concentration of one partner at which half of the binding sites on the other are occupied at equilibrium, for simple one-to-one binding.
